# According to the supplement of paper PMC9112550, “Optimization of the antimicrobial peptide Bac7 by deep mutational scanning” (BMC Biology, 2022):
# Test system: Escherichia coli TOP10
# Test: shrunken log2 fold change of peptide-encoding DNA abundance (4.5 h post-induction vs induction); higher = less antimicrobial activity (less host growth inhibition)
# Conditions: time post-induction: 4.5 h; library: site-saturation at positions 5, 18, 19, 20
# 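Further: peptides expressed intracellularly from a pBAD plasmid library in pooled LB shake-flask culture, induced with 0.3% L-arabinose, DNA abundance read by NGS, three biological replicates, DESeq2 with apeglm shrinkage.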
row,Sequence,shrunken log2 fold change
1,RRIRIRPPRLPRPRPRPVQRPRP,-0.039
2,RRIRKRPPRLPRPRPRPTFSPRP,0.148
3,RRIRDRPPRLPRPRPRPCVTPRP,0.163
4,RRIRVRPPRLPRPRPRPKDMPRP,-0.272
5,RRIRFRPPRLPRPRPRPVVDPRP,-0.232
6,RRIRLRPPRLPRPRPRPKLIPRP,-0.219
7,RRIRVRPPRLPRPRPRPAMCPRP,-0.178
8,RRIRSRPPRLPRPRPRPQWKPRP,-0.0984
9,RRIRTRPPRLPRPRPRPFAFPRP,0.0192
10,RRIRQRPPRLPRPRPRPDSEPRP,0.138
11,RRIRFRPPRLPRPRPRPVQSPRP,-0.16
12,RRIRLRPPRLPRPRPRPPFKPRP,0.0605
13,RRIRDRPPRLPRPRPRPTAFPRP,0.231
14,RRIRYRPPRLPRPRPRPDRTPRP,-0.0309
15,RRIRSRPPRLPRPRPRPYIIPRP,-0.502
16,RRIRRRPPRLPRPRPRPGCAPRP,0.73
17,RRIRGRPPRLPRPRPRPWHKPRP,-0.299
18,RRIRPRPPRLPRPRPRPGPFPRP,0.574
19,RRIRNRPPRLPRPRPRPVLVPRP,-0.211
20,RRIRMRPPRLPRPRPRPGVLPRP,0.135
21,RRIRHRPPRLPRPRPRPNYLPRP,-0.114
22,RRIRVRPPRLPRPRPRPYLCPRP,0.0235
23,RRIRPRPPRLPRPRPRPGYWPRP,0.278
24,RRIRRRPPRLPRPRPRPKQCPRP,0.0754
25,RRIRRRPPRLPRPRPRPADSPRP,-0.0331

row,Sequence,shrunken log2 fold change
1,RRIRNRPPRLPRPRPRPPLTPRP,0.0501
2,RRIRCRPPRLPRPRPRPPTVPRP,0.202
3,RRIRERPPRLPRPRPRPPAHPRP,0.269
4,RRIRYRPPRLPRPRPRPMGGPRP,-0.264
5,RRIRMRPPRLPRPRPRPMWTPRP,0.038
6,RRIRLRPPRLPRPRPRPNTDPRP,-0.371
7,RRIRPRPPRLPRPRPRPWIPPRP,-0.225
8,RRIRRRPPRLPRPRPRPYEVPRP,-0.0692
9,RRIRWRPPRLPRPRPRPVMRPRP,0.0188
10,RRIRMRPPRLPRPRPRPDRAPRP,0.861
11,RRIRERPPRLPRPRPRPIGAPRP,-0.464
12,RRIRARPPRLPRPRPRPMCHPRP,0.294
13,RRIRDRPPRLPRPRPRPCNPPRP,-0.13
14,RRIRCRPPRLPRPRPRPARPPRP,0.52
15,RRIRYRPPRLPRPRPRPLQNPRP,0.0956
16,RRIRRRPPRLPRPRPRPSYSPRP,-0.319
17,RRIRGRPPRLPRPRPRPRFAPRP,0.99
18,RRIRSRPPRLPRPRPRPKHQPRP,0.155
19,RRIRIRPPRLPRPRPRPPIMPRP,-0.494
20,RRIRTRPPRLPRPRPRPIMAPRP,-0.281
21,RRIRHRPPRLPRPRPRPTYVPRP,-0.143
22,RRIRVRPPRLPRPRPRPDYIPRP,-0.381
23,RRIRQRPPRLPRPRPRPFQPPRP,0.0592
24,RRIRFRPPRLPRPRPRPWSWPRP,-0.169
25,RRIRLRPPRLPRPRPRPNFQPRP,-0.0242

row,Sequence,shrunken log2 fold change
1,RRIRYRPPRLPRPRPRPLQWPRP,-0.0328
2,RRIRCRPPRLPRPRPRPPHPPRP,0.339
3,RRIRGRPPRLPRPRPRPMHLPRP,0.186
4,RRIRIRPPRLPRPRPRPHARPRP,3.76
5,RRIRNRPPRLPRPRPRPLDLPRP,0.00897
6,RRIRVRPPRLPRPRPRPAGHPRP,-0.1
7,RRIRGRPPRLPRPRPRPLPWPRP,0.702
8,RRIRFRPPRLPRPRPRPWWDPRP,-0.0745
9,RRIRERPPRLPRPRPRPTRAPRP,0.571
10,RRIRWRPPRLPRPRPRPYFVPRP,-0.309
11,RRIRFRPPRLPRPRPRPRKPPRP,0.428
12,RRIRPRPPRLPRPRPRPAIPPRP,-0.0146
13,RRIRTRPPRLPRPRPRPDWNPRP,-0.39
14,RRIRMRPPRLPRPRPRPDWCPRP,0.0698
15,RRIRMRPPRLPRPRPRPKNGPRP,0.0732
16,RRIRQRPPRLPRPRPRPEGGPRP,0.161
17,RRIRPRPPRLPRPRPRPIFKPRP,-0.0374
18,RRIRARPPRLPRPRPRPINVPRP,-0.0118
19,RRIRRRPPRLPRPRPRPHETPRP,1.07
20,RRIRNRPPRLPRPRPRPPWKPRP,-0.0649
21,RRIRSRPPRLPRPRPRPMDDPRP,-0.0393
22,RRIRQRPPRLPRPRPRPFPVPRP,0.0568
23,RRIRHRPPRLPRPRPRPIFAPRP,0.158
24,RRIRCRPPRLPRPRPRPFIDPRP,-0.464
25,RRIRCRPPRLPRPRPRPMCAPRP,0.0886

row,Sequence,shrunken log2 fold change
1,RRIRFRPPRLPRPRPRPTVEPRP,0.0624
2,RRIRKRPPRLPRPRPRPTKMPRP,0.229
3,RRIRIRPPRLPRPRPRPFFMPRP,-0.538
4,RRIRARPPRLPRPRPRPQFRPRP,-0.123
5,RRIRIRPPRLPRPRPRPADQPRP,0.0357
6,RRIRRRPPRLPRPRPRPIEMPRP,0.0754
7,RRIRSRPPRLPRPRPRPGVDPRP,0.334
8,RRIRRRPPRLPRPRPRPWSWPRP,-0.0122
9,RRIRVRPPRLPRPRPRPVALPRP,0.0693
10,RRIRVRPPRLPRPRPRPFHQPRP,0.032
11,RRIRCRPPRLPRPRPRPAPLPRP,0.645
12,RRIRKRPPRLPRPRPRPCPCPRP,0.00911
13,RRIRFRPPRLPRPRPRPGTIPRP,-0.173
14,RRIRVRPPRLPRPRPRPTHSPRP,0.156
15,RRIRKRPPRLPRPRPRPNRAPRP,-0.0335
16,RRIRVRPPRLPRPRPRPYRHPRP,-1.08
17,RRIRTRPPRLPRPRPRPMMEPRP,-0.202
18,RRIRTRPPRLPRPRPRPASAPRP,0.916
19,RRIRSRPPRLPRPRPRPSDKPRP,-0.351
20,RRIRKRPPRLPRPRPRPKQNPRP,0.706
21,RRIRSRPPRLPRPRPRPMMQPRP,-0.241
22,RRIRVRPPRLPRPRPRPPNDPRP,-0.17
23,RRIRGRPPRLPRPRPRPETIPRP,0.224
24,RRIRSRPPRLPRPRPRPGSYPRP,-0.0952
25,RRIRARPPRLPRPRPRPYMRPRP,-0.0199

row,Sequence,shrunken log2 fold change
1,RRIRRRPPRLPRPRPRPKWDPRP,0.139
2,RRIRDRPPRLPRPRPRPCHQPRP,-0.328
3,RRIRGRPPRLPRPRPRPSHDPRP,0.136
4,RRIRKRPPRLPRPRPRPTGTPRP,0.563
5,RRIRTRPPRLPRPRPRPPIEPRP,-0.0275
6,RRIRWRPPRLPRPRPRPESVPRP,0.192
7,RRIRNRPPRLPRPRPRPMCIPRP,-0.0106
8,RRIRERPPRLPRPRPRPMQKPRP,0.0175
9,RRIRPRPPRLPRPRPRPLKQPRP,0.0902
10,RRIRRRPPRLPRPRPRPCWCPRP,-0.138
11,RRIRIRPPRLPRPRPRPSIKPRP,-0.64
12,RRIRYRPPRLPRPRPRPFRIPRP,-0.535
13,RRIRQRPPRLPRPRPRPIMLPRP,-0.433
14,RRIRVRPPRLPRPRPRPCEMPRP,1.45
15,RRIRWRPPRLPRPRPRPAHDPRP,0.0987
16,RRIRIRPPRLPRPRPRPVYSPRP,-0.102
17,RRIRMRPPRLPRPRPRPYRRPRP,0.0224
18,RRIRNRPPRLPRPRPRPWGMPRP,-0.214
19,RRIRERPPRLPRPRPRPLTGPRP,-0.0199
20,RRIRFRPPRLPRPRPRPRPEPRP,0.477
21,RRIRIRPPRLPRPRPRPYTSPRP,-0.434
22,RRIRWRPPRLPRPRPRPGDNPRP,0.106
23,RRIRFRPPRLPRPRPRPSECPRP,-0.472
24,RRIRGRPPRLPRPRPRPVFSPRP,0.0314
25,RRIRVRPPRLPRPRPRPKKLPRP,-0.0765

row,Sequence,shrunken log2 fold change
1,RRIRYRPPRLPRPRPRPDAPPRP,-0.0708
2,RRIRWRPPRLPRPRPRPKQCPRP,0.31
3,RRIRARPPRLPRPRPRPFRNPRP,-0.575
4,RRIRVRPPRLPRPRPRPNEEPRP,-0.00544
5,RRIRDRPPRLPRPRPRPLQLPRP,-0.0775
6,RRIRHRPPRLPRPRPRPNEWPRP,-0.0925
7,RRIRTRPPRLPRPRPRPSASPRP,-0.0732
8,RRIRERPPRLPRPRPRPHSQPRP,0.061
9,RRIRGRPPRLPRPRPRPWYAPRP,-0.249
10,RRIRYRPPRLPRPRPRPTSTPRP,-0.203
11,RRIRDRPPRLPRPRPRPFDTPRP,-0.329
12,RRIRDRPPRLPRPRPRPMVKPRP,0.115
13,RRIRRRPPRLPRPRPRPFWWPRP,0.528
14,RRIRYRPPRLPRPRPRPPCNPRP,-0.0594
15,RRIRWRPPRLPRPRPRPEGVPRP,0.601
16,RRIRGRPPRLPRPRPRPNGLPRP,0.377
17,RRIRTRPPRLPRPRPRPTFDPRP,-0.0153
18,RRIRMRPPRLPRPRPRPAASPRP,1.25
19,RRIRPRPPRLPRPRPRPMWAPRP,-0.201
20,RRIRERPPRLPRPRPRPNIVPRP,-0.232
21,RRIRNRPPRLPRPRPRPSNWPRP,-0.203
22,RRIRTRPPRLPRPRPRPLGEPRP,0.0248
23,RRIRRRPPRLPRPRPRPAWWPRP,1.01
24,RRIRWRPPRLPRPRPRPHHCPRP,-0.239
25,RRIRCRPPRLPRPRPRPSQQPRP,-0.0757
